Assay results as given in patent US20240010684A1, “MASP INHIBITORY COMPOUNDS AND USES THEREOF” (BAYER AKTIENGESELLSCHAFT, priority 2020, published 2024).
Bridges are numbered along the chain shown (N, C = ends). [ ]: non-standard residue; d: D form. Oic = O=C(O)[C@@H]1C[C@@H]2CCCC[C@@H]2N1; Trx = NC[C@H]1CC[C@H](C(=O)O)CC1; tBuAla = CC(C)(C)C[C@H](N)C(=O)O; Pen = CC(C)(S)[C@H](N)C(=O)O; NMeC = CN[C@@H](CS)C(=O)O; Abu = CC[C@H](N)C(=O)O; Ahx = NCCCCCC(=O)O; GABA = NCCCC(=O)O; Sar = CNCC(=O)O

T1: recombinant human MASP1 (amino acids 297-699, C-terminal His Tag) (human) (UniProt P48740)
T1 sequence: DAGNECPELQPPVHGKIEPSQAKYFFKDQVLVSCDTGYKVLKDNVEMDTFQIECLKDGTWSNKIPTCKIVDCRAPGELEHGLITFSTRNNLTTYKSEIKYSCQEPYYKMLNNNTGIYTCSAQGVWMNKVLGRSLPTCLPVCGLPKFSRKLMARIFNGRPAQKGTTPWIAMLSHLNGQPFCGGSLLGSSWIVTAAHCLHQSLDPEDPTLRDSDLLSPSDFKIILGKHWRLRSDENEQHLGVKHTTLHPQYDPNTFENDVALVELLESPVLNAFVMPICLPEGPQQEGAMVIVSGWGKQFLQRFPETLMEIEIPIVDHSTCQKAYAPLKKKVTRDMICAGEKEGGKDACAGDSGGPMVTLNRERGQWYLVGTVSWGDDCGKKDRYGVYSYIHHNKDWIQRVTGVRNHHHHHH

T2: recombinant human MASP1 (amino acids 297-699, C-terminal His Tag) (human), P48740
T2 chain: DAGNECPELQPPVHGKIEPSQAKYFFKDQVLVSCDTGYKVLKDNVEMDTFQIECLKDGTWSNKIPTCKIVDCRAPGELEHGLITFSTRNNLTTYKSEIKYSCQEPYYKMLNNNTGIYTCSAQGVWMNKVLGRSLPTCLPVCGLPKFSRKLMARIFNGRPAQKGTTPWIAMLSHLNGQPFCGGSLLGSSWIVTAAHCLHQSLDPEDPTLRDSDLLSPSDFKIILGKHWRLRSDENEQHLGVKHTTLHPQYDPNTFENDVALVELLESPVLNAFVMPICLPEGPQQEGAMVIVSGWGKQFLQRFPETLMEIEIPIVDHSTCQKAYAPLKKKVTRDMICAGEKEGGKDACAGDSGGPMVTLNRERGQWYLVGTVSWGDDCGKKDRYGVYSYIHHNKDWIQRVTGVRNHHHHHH

T3: recombinant rat MASP1 (amino acids 302-704, C-terminal His Tag) (rat), Q8CHN8
T3 chain: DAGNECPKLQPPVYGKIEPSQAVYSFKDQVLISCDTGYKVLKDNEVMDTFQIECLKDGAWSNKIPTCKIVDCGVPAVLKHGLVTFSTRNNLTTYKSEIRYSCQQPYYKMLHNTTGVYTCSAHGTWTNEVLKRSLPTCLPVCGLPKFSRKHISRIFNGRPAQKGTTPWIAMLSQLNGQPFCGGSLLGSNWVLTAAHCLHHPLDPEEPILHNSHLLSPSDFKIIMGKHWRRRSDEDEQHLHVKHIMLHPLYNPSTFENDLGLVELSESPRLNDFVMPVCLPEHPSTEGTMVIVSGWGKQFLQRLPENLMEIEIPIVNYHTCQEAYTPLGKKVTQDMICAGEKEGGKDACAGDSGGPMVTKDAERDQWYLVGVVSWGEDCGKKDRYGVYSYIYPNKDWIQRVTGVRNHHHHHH


Key:
Experiment in all cases: cell-based or functional assay
[1] = target: T1, recombinant human MASP1 (amino acids 297-699, C-terminal His Tag) (human)
[2] = target: recombinant human MASP2 (amino acids 297-686, C-terminal His Tag) (human) (UniProt O00187)
[3] = target: T2, recombinant human MASP1 (amino acids …)
[4] = target: recombinant human MASP2 (amino acids 297-686, C-terminal His Tag) (human), O00187
[5] = target: T3, recombinant rat MASP1 (amino acids …)
[6] = target: recombinant rat MASP2 (amino acids 296-685, C-terminal His Tag) (rat), Q9JJS8
recombinant rat MASP2 (amino acids 296-685, C-terminal His Tag) (rat), Q9JJS8, sequence (Q9JJS8 other isoform, or with tags, fused parts or gaps limits assumed): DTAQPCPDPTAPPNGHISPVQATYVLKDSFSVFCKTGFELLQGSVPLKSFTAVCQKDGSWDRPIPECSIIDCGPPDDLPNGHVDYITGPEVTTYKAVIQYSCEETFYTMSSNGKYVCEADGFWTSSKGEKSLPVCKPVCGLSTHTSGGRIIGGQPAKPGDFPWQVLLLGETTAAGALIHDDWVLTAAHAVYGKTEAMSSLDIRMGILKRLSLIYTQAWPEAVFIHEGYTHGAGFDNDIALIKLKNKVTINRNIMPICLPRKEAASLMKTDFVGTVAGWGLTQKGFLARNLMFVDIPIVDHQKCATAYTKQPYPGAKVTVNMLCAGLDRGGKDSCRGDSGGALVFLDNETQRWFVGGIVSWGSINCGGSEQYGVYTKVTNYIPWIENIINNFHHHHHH

recombinant human MASP2 (amino acids 297-686, C-terminal His Tag) (human), sequence (O00187 other isoform, or with tags, fused parts or gaps limits assumed): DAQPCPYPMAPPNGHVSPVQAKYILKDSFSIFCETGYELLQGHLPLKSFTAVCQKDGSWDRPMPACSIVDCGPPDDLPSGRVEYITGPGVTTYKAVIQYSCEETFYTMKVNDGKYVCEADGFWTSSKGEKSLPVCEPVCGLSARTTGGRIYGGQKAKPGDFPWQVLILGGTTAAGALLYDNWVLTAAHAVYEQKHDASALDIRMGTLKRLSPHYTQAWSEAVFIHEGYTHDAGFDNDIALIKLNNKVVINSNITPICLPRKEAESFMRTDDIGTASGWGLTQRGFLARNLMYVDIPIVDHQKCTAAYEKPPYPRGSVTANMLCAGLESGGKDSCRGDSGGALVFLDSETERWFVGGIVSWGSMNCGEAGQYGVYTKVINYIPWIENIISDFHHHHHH
recombinant human MASP2 (amino acids 297-686, C-terminal His Tag) (human), O00187, sequence (O00187 other isoform, or with tags, fused parts or gaps limits assumed): as above

Row | Binder | human MASP1 IC50 [1] | human MASP2 IC50 [2] | human MASP1 IC50 [3] | human MASP2 IC50 [4] | rat MASP1 IC50 [5] | rat MASP2 IC50 [6]
1 | [Ahx][Sar]GICSRSLP[Oic]I[Pen]IPE-NH2 (disulfide 5-13; lactam N-16; also: TFA salt) [Example 76: (Ahx)**-((N-Me)G)-GIC+SRSLP-(Oic)-I-(Pen)+-IPE++-NH2] | 9.7 nM | 180 nM | – | – | – | –
2 | [Ahx]GICSRS[tBuAla]PPI[NMeC]IPD-NH2 (disulfide 4-12; lactam N-15; also: TFA salt) [Example 40: (Ahx)**-GIC+SRS-((tBu)A)-PPI-((N-Me)C)+-IPD++-NH2] | 7.1 nM | 90 nM | – | – | – | –
3 | cyclo([Ahx]GICSRS[tBuAla]PPI[NMeC]IPD) (disulfide 4-12; also: TFA salt) [Example 30: (Ahx)**-GIC+SRS-((tBu)A)-PPI-((N-Me)C)+-IPD**] | 16 nM | 65 nM | – | – | – | –

Continued, values first:

Row | human MASP1 IC50 [1] | human MASP2 IC50 [2] | human MASP1 IC50 [3] | human MASP2 IC50 [4] | rat MASP1 IC50 [5] | rat MASP2 IC50 [6] | Binder
4 | 8.7 nM | 110 nM | – | – | – | – | cyclo([GABA]ICSRS[tBuAla]PPI[NMeC]IPD) (disulfide 3-11; also: TFA salt) [Example 36: (Gamma-Abu)**-IC+SRS-((tBu)A)-PPI-((N-Me)C)+-IPD**]
5 | 28 nM | 62 nM | – | – | – | – | cyclo([Ahx][Abu]ICSRS[tBuAla]PPI[NMeC]IPD) (disulfide 4-12; also: TFA salt) [Example 33: (Ahx)**-(Abu)-IC+SRS-((tBu)A)-PPI-((N-Me)C)+-IPD**]
6 | 20 nM | 190 nM | – | – | – | – | G[Trx]GICSRS[tBuAla]PPI[NMeC]IPD-NH2 (disulfide 5-13; lactam N-16; also: TFA salt) [Example 69: G**-(TXA)-GIC+SRS-((tBu)A)-PPI-((N-Me)C)+-IPD++-NH2]
7 | 16 nM | 130 nM | – | – | – | – | cyclo(AGAICSRS[tBuAla]PPI[NMeC]IPD) (disulfide 5-13; also: TFA salt) [Example 31: A**GAIC+SRS-((tBu)A)-PPI-((N-Me)C)+-IPD**]
8 | – | – | > 3000 nM | > 3000 nM | 1000 nM | 1000 nM | GRCTKSIPPICFPD (modifications not checked) [Bicyclic SFTI-1: G**RC+TKSIPPIC+FPD**]
